Assay results as given in PMC5529482.

Experiments:
[1] = biological target: mouse TNFR2-Fc fusion protein (mouse) (UniProt P25119); assay: ELISA; TNFR1-Fc or TNFR2-Fc coated at 1 µg/ml in PBS, 4 °C overnight; TNF muteins in 2% skim milk powder in PBS, 1 h RT; detected with anti-TNF clone F6C5 and HRP anti-mouse IgG
[2] = biological target: mouse TNFR2-Fc fusion protein (mouse) (UniProt P25119); assay: quartz crystal microbalance; mouse TNFR2-Fc chemically immobilised on a carboxyl sensor chip at high density (270 Hz, saturated); muteins 2-32 nM; PBST (PBS, 0.1% Tween 20) pH 7.4, 37 °C; Attana Cell 200
[3] = biological target: p53-sc-mTNFR2 (not stated | mouse) (UniProt P04637); assay: SEC; approx. 20 µg protein on BioSep-SEC-S2000 in PBS, 0.5 ml/min; size by standard proteins
[4] = biological target: mouse TNFR2-Fc fusion protein (mouse) (UniProt P25119); assay: quartz crystal microbalance; mouse TNFR2-Fc chemically immobilised on a carboxyl sensor chip at low density (130 Hz, non-saturated); muteins 8-256 nM; PBST (PBS, 0.1% Tween 20) pH 7.4, 37 °C; Attana Cell 200; biphasic curves for p53- and GCN4-sc-mTNFR2
[5] = biological target: EHD2-sc-mTNFR2 (not stated | mouse) (UniProt P06804); assay: SEC; approx. 20 µg protein on BioSep-SEC-S2000 in PBS, 0.5 ml/min; size by standard proteins

EC50 [1] | Kd [2] | stoichiometry N [3] | Kd1 [4] | Kd2 [4] | koff [2] | kon [2] | stoichiometry N [5] | Kd [4] | koff [4] | kon [4] | Substance
74 pM | 43.7 pM | 4 | 50.9 nM | 3.97 nM |  |  |  |  |  |  | p53-sc-mTNFR2 (from UniProt P04637 320-359; P06804 91-235; P06804 91-235; P06804 91-235) (ligand)
1550 pM | 449 pM |  |  |  | 0.000399 s⁻¹ | 808000 M⁻¹ s⁻¹ |  |  |  |  | sc-mTNFR2 (mouse TNFR2-specific (D221N/A223R) single-chain mouse TNF) (from UniProt P06804 91-235; P06804 91-235; P06804 91-235) (ligand)
110 pM | 61.5 pM |  |  |  | 3.74e-05 s⁻¹ | 607000 M⁻¹ s⁻¹ | 2 | 118000 pM | 0.063 s⁻¹ | 533000 M⁻¹ s⁻¹ | EHD2-sc-mTNFR2 (from UniProt P06804 91-235; P06804 91-235; P06804 91-235) (ligand)
